Values of other authors as cited in article PMC4485156.

Target: haptoglobin-hemoglobin complex (Homo sapiens) (UniProt P00738)
Chain of UniProt P00738 (P00738 19-406, chain 1 of 3): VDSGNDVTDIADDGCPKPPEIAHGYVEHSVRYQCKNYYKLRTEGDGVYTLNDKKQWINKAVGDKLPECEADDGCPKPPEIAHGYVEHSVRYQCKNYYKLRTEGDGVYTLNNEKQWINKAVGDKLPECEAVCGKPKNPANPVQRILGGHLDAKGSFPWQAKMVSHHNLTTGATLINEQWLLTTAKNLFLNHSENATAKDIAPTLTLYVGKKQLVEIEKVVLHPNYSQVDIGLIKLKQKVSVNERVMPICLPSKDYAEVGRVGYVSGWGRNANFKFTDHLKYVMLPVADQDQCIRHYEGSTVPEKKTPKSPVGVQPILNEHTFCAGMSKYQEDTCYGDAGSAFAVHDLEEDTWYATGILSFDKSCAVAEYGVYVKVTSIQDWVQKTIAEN
Chain of UniProt P00738 (P69905 2-142, chain 2 of 3, further chain): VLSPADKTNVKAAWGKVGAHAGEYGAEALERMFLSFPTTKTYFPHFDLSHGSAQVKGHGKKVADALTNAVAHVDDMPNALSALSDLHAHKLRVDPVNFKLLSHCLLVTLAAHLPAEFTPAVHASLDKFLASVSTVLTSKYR
Chain of UniProt P00738 (P68871 2-147, chain 3 of 3, further chain): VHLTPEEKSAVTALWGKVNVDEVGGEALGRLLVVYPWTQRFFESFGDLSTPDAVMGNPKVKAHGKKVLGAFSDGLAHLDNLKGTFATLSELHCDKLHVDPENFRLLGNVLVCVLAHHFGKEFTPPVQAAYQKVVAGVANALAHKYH

CD163 (from UniProt Q86VB7)
Kd: 0.019 µM
